Data: patent US20100056445A1, “ADIPONECTIN FOR THE TREATMENT AND DIAGNOSIS OF ALBUMINURIA” (THOMAS JEFFERSON UNIVERSITY, priority 2006, published 2010)
Entries after “also recorded” stand apart in the source; their conditions may differ.

Tests used:
[1] = system: podocyte monolayer; experiment: Albumin permeability across differentiated podocyte monolayer (Transwell); format: cell-based, mouse; conditions: adiponectin (globular or full length) 3 μg/ml, serum free, vs. control
Protocol: Podocyte cell culture: Conditionally immortalized mouse podocytes were kindly provided by Dr. Peter Mundel (Albert Einstein College of Medicine, Bronx, N.Y.) and were cultured as previously described (27). The cells harbor a temperature-sensitive variant of the SV40 large T antigen (tsA58) that is inducible by γ-interferon and stable at 33° C. but rapidly degraded at 37° C. (27). At 33° C., the large T antigen allows for cellular proliferation. The proliferating cells are maintained in collagen I—coated flasks in RPMI-1640 media supplemented with 10% FBS and 10 units/ml mouse recombinant γ-interferon. When the cells have reached confluence, they are passaged and allowed to differentiate at 37° C. for 8-10 days without γ-interferon in Dulbecco's modified Eagle's medium containing 5.5 mmol/l glucose and 5% FCS. For the permeability assay a modification of a previously published protocol (28) was adopted. Differentiated podocytes (0.2×10^6 podocytes/well) plated on collagen coated 24 well Transwell plates (Corning) were serum-starved ovenight when confluent. Cells were then modulated with globular adiponectin (PepROTech Inc.) with or without 1 mM adenosine 9-p-D-arabinofuranoside (ARA-A) (Sigma, St. Louis, Mo.), for 24 h. Cells were then washed twice with PBS supplemented with 1 mM MgCl2 and 1 mM CaCl2. The upper compartment was refilled with 0.25 ml RPMI 1640 alone and the lower compartment with 0.5 ml RPMI 1640 supplemented with 40 mg/ml BSA and incubated for 2 hour at 37° C. Total protein concentration in the upper compartment was determined using a Bio-Rad protein assay (Bio-Rad Laboratories, Hercules, Calif.).

[2] = system: AMPK; experiment: AMPK activity (p-Thr172 AMPKα) in podocytes by immunoblotting and confocal microscopy; format: cell-based, mouse
Excerpt: Western immunoblotting: Total protein from mouse podocytes was solubilized in lysis buffer containing 1% Triton X-100, Protease Inhibitor Cocktail (Mini Complete Protease Inhibitor Cocktail, Roche, Germany), PMSF, and phosphatase inhibitors. Protein was resolved on SDS-PAGE and transferred to a nitrocellulose membrane (Bio-Rad, Hercules, Calif.) as previously described (29). The membrane was immunoblotted initially with rabbit anti mouse phospho-AMPKα (p-AMPKα) monoclonal antibody or with rabbit anti AMPKα monoclonal (Cell Signaling Technology, New England Bio Labs, Boston, Mass.). Subsequently membranes were blotted with a secondary donkey anti-rabbit antibody (Amersham Biosciences, Piscataway, N.J.) conjugated to horseradish peroxidase (HRP). […]
(§1) Immunohistochemistry: Immunocytochemistry was performed as described previously (30). […] Fluorescence pictures were obtained using confocal laser fluorescence microscope (LSM-510, Carl Zeiss, Jena, Germany). […] Quantitation of p-AMPKα positive cells was performed on 50 glomeruli from 4 mice in each group.
as §1, with “p-AMPKa” for “p-AMPKα”, “group. […]” for “group.”

B1: adiponectin: 30 kDa adipocyte-secreted protein; in the first series of tests the recombinant globular domain was used, later gAd or fAd (protein, UniProt Q15848 19-244, looked up)
Adiponectin: ETTTQGPGVLLPLPKGACTGWMAGIPGHPGHNGAPGRDGRDGTPGEKGEKGDPGLIGPKGDIGETGVPGAEGPRGFPGIQGRKGEPGEGAYVYRSAFSVGLETYVTIPNMPIRFTKIFYNQQNHYDGSTGKFHCNIPGLYYFAYHITVYMKDVKVSLFKKDKAMLFTYDQYQENNVDQASGSVLLHLEVGDQVWLQVYGEGERNGLYADNDNDSTFTGFLLYHDTN
In the case of B1, the “Permeability of albumin across a podocyte monolayer” value [1] is reported as “reduced”, the “AMPK activity (AMPKα phosphorylation on Thr-172) in podocytes” value ([2]; globular adiponectin 3 μg/ml, 24 h, serum-free, normal glucose) is reported as “increased” and the “Effect on the high glucose (HG) decrease of AMPK activity in podocytes” value ([2]; high glucose exposure plus adiponectin) is reported as “prevented; also recorded: blocked”.
